Measurements as given in the supplement of paper PMC9732359.
± gives the uncertainty stated by the source.

Test: protein stability index of a GFP-peptide fusion (yeast GPS) (PSI 1-4); higher = more stable; sorted into four equal gates, so the index is relative within each strain
Procedure, shortened: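 Plasmids isolated from each sorting gate were PCR-amplified and Illumina-sequenced, and barcodes assigned the reads to strains. The gates, four of equal size, were set by GFP/Cherry fluorescence ratio on mid-log cultures in leucine-free medium. These cultures were yeast carrying a pooled library of tiled 17-residue yeast protein peptides fused downstream of GFP on a plasmid that also expresses Cherry. The protein stability index is the sum of every gate's read frequency times its gate number.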

LLEETQAKLKKNVETLE [SMC4]
protein stability index (doa10∆): 3.39 ± 0.092 | protein stability index (pdr5∆): 3.18 ± 0.085 | protein stability index (san1∆): 3.31 ± 0.08 | protein stability index (ubr1∆): 3.51 ± 0.071

GISVPFHSTYLMNGVKP [FAS1]
protein stability index (doa10∆): 1.46 ± 0.042 | protein stability index (pdr5∆): 1.51 ± 0.04 | protein stability index (san1∆): 1.27 ± 0.074 | protein stability index (ubr1∆): 1.39 ± 0.027

NHSNNDIPTIADEHFWA [BRN1]
protein stability index (doa10∆): 3.38 ± 0.099 | protein stability index (pdr5∆): 3.11 ± 0.077 | protein stability index (san1∆): 3.2 ± 0.059 | protein stability index (ubr1∆): 3.24 ± 0.036

RNNFLAENSHTQPKATS [PUP1]
protein stability index (doa10∆): 3.14 ± 0.069 | protein stability index (pdr5∆): 3.1 ± 0.059 | protein stability index (san1∆): 3.06 ± 0.044 | protein stability index (ubr1∆): 3.13 ± 0.04

IMNLITNEPCGAQFSRS [RPN4]
protein stability index (pdr5∆): 3.1 ± 0.3 | protein stability index (ubr1∆): 2.96 ± 0.17

NQNSSTGAGAFGTGQST [YJL041W/NSP1]
protein stability index (doa10∆): 2.33 ± 0.058 | protein stability index (pdr5∆): 1.99 ± 0.062 | protein stability index (san1∆): 2.31 ± 0.11 | protein stability index (ubr1∆): 2.6 ± 0.048

DACPLDNQPWQLARCGR [HRT1]
protein stability index (doa10∆): 2.76 ± 0.068 | protein stability index (pdr5∆): 2.56 ± 0.067 | protein stability index (san1∆): 2.03 ± 0.077 | protein stability index (ubr1∆): 2.61 ± 0.059

LIIDGFKSYATRTVITD [SMC2]
protein stability index (doa10∆): 2.82 ± 0.11 | protein stability index (pdr5∆): 3.21 ± 0.09 | protein stability index (san1∆): 2.99 ± 0.071 | protein stability index (ubr1∆): 3.12 ± 0.083

PTRMVRVAKGSGTSVFE [SRP54]
protein stability index (doa10∆): 2.94 ± 0.29

EWQDIIHQREQELQIKR [CSE2]
protein stability index (pdr5∆): 3.5 ± 0.17 | protein stability index (san1∆): 3.29 ± 0.26 | protein stability index (ubr1∆): 3.13 ± 0.23

DTFYMNVESVGSIPVDQ [RPB3]
protein stability index (doa10∆): 2.9 ± 0.075 | protein stability index (pdr5∆): 2.43 ± 0.056 | protein stability index (san1∆): 2.67 ± 0.078 | protein stability index (ubr1∆): 2.2 ± 0.12

IKGIREYEEWQKSVSLL [YDL116W/NUP84]
protein stability index (doa10∆): 2.08 ± 0.14 | protein stability index (pdr5∆): 2.66 ± 0.12 | protein stability index (san1∆): 2.5 ± 0.17 | protein stability index (ubr1∆): 2.55 ± 0.095

IRIYDLGKKKATVDEFP [RPL10]
protein stability index (doa10∆): 1.47 ± 0.054 | protein stability index (pdr5∆): 1.51 ± 0.048 | protein stability index (san1∆): 1.21 ± 0.098 | protein stability index (ubr1∆): 1.29 ± 0.035

IYPRTVIDIEIHVLEQD [SKI6]
protein stability index (doa10∆): 1.42 ± 0.055 | protein stability index (pdr5∆): 1.88 ± 0.049 | protein stability index (san1∆): 1.6 ± 0.15 | protein stability index (ubr1∆): 1.83 ± 0.041

KPSNGKGSRKSSKAATP [SNF12]
protein stability index (doa10∆): 3 ± 0.085 | protein stability index (pdr5∆): 3.02 ± 0.076 | protein stability index (san1∆): 3.24 ± 0.079 | protein stability index (ubr1∆): 3.239 ± 0.027

LTLMEKAAFEDLKSKGL [FAS1]
protein stability index (doa10∆): 3.03 ± 0.078 | protein stability index (pdr5∆): 3.29 ± 0.088 | protein stability index (san1∆): 3.2 ± 0.054 | protein stability index (ubr1∆): 3.26 ± 0.052

GKLISNLSSTPMETLLS [YML031W/NDC1]
protein stability index (doa10∆): 2.61 ± 0.11 | protein stability index (pdr5∆): 2.92 ± 0.12 | protein stability index (san1∆): 2.51 ± 0.11 | protein stability index (ubr1∆): 2.5 ± 0.063

PDDEKFTDENTIVLSLN [RPC40]
protein stability index (doa10∆): 3.46 ± 0.13 | protein stability index (pdr5∆): 3.6 ± 0.085 | protein stability index (san1∆): 3 ± 0.16 | protein stability index (ubr1∆): 3.47 ± 0.087

KTDPAGYYVGYKATATG [SCL1]
protein stability index (doa10∆): 2.98 ± 0.08 | protein stability index (pdr5∆): 3.24 ± 0.065 | protein stability index (san1∆): 3.21 ± 0.065 | protein stability index (ubr1∆): 3.25 ± 0.1

APTGSGKTNIALLTVLK [BRR2]
protein stability index (doa10∆): 2.88 ± 0.067 | protein stability index (pdr5∆): 3.07 ± 0.073 | protein stability index (san1∆): 3.35 ± 0.052 | protein stability index (ubr1∆): 2.88 ± 0.049

FMGTAFNQEGDYNFKYG [PRP8]
protein stability index (doa10∆): 3.02 ± 0.11 | protein stability index (pdr5∆): 3.1 ± 0.09 | protein stability index (san1∆): 3.34 ± 0.098 | protein stability index (ubr1∆): 3.18 ± 0.072

TVRKSIACVLTVINEQQ [RPL35A]
protein stability index (doa10∆): 1.62 ± 0.077 | protein stability index (pdr5∆): 2.07 ± 0.077 | protein stability index (san1∆): 2.21 ± 0.079 | protein stability index (ubr1∆): 2.11 ± 0.063

KSSVPGSAELRNSYPAS [RPN3]
protein stability index (doa10∆): 2.66 ± 0.089 | protein stability index (pdr5∆): 3.33 ± 0.076 | protein stability index (san1∆): 2.73 ± 0.078 | protein stability index (ubr1∆): 3.25 ± 0.095

AAELQEKPLTPLKYTKL [SNF6]
protein stability index (doa10∆): 2.94 ± 0.13 | protein stability index (pdr5∆): 3.02 ± 0.13 | protein stability index (san1∆): 2.39 ± 0.17 | protein stability index (ubr1∆): 2.78 ± 0.13

NSESTTQGGNVNLDNTA [RPT5]
protein stability index (doa10∆): 3.53 ± 0.11 | protein stability index (pdr5∆): 3.41 ± 0.12 | protein stability index (san1∆): 3.27 ± 0.09 | protein stability index (ubr1∆): 3.11 ± 0.087

NKGRAVYINPSGEKIDF [BRR2]
protein stability index (doa10∆): 2.98 ± 0.13 | protein stability index (pdr5∆): 2.76 ± 0.1 | protein stability index (san1∆): 2.91 ± 0.071 | protein stability index (ubr1∆): 3.17 ± 0.098

RPDITMYCRPAPSDFSE [GRR1]
protein stability index (doa10∆): 2.16 ± 0.12 | protein stability index (pdr5∆): 2.12 ± 0.15 | protein stability index (san1∆): 2.97 ± 0.067 | protein stability index (ubr1∆): 2.17 ± 0.076

DDIINNDEPSHKKIKVA [SIR2]
protein stability index (doa10∆): 2.77 ± 0.052 | protein stability index (pdr5∆): 2.84 ± 0.037 | protein stability index (san1∆): 2.64 ± 0.041 | protein stability index (ubr1∆): 2.87 ± 0.042

AQLAKAKTELNEVSLAI [SMC2]
protein stability index (doa10∆): 3 ± 0.077 | protein stability index (pdr5∆): 2.75 ± 0.074 | protein stability index (san1∆): 1.82 ± 0.097 | protein stability index (ubr1∆): 2.61 ± 0.046

QFKSKEVEKAHPIRLYT [PRP8]
protein stability index (doa10∆): 3.17 ± 0.085 | protein stability index (pdr5∆): 2.88 ± 0.056 | protein stability index (san1∆): 2.71 ± 0.063 | protein stability index (ubr1∆): 2.86 ± 0.06

EVILVDPQHKAIRRDAR [RPL15A]
protein stability index (doa10∆): 2.87 ± 0.088 | protein stability index (pdr5∆): 3.15 ± 0.13 | protein stability index (san1∆): 2.78 ± 0.28 | protein stability index (ubr1∆): 2.97 ± 0.17

IKEDIEKFDLERVTALK [SMC1]
protein stability index (doa10∆): 3.63 ± 0.21 | protein stability index (san1∆): 3.41 ± 0.1

VDNENNKPAIKEDSTIQ [SWI3]
protein stability index (doa10∆): 2.84 ± 0.063 | protein stability index (pdr5∆): 2.97 ± 0.069 | protein stability index (san1∆): 3.08 ± 0.058 | protein stability index (ubr1∆): 3.12 ± 0.062

GGNFKDLSTLVHSSSPS [GAL11]
protein stability index (doa10∆): 1.48 ± 0.056 | protein stability index (pdr5∆): 1.46 ± 0.045 | protein stability index (san1∆): 1.59 ± 0.089 | protein stability index (ubr1∆): 1.38 ± 0.059

GISMFDYISGISVGLYD [SKI6]
protein stability index (doa10∆): 2.02 ± 0.092 | protein stability index (pdr5∆): 2.02 ± 0.069 | protein stability index (san1∆): 2.03 ± 0.069 | protein stability index (ubr1∆): 2.1 ± 0.052

DILSQILYGLVDKGAIM [YJL039C/NUP192]
protein stability index (doa10∆): 2.87 ± 0.11 | protein stability index (pdr5∆): 2.87 ± 0.25 | protein stability index (san1∆): 2.95 ± 0.19 | protein stability index (ubr1∆): 2.79 ± 0.28

LPFQRLVREIAQDFKTD [HHT1]
protein stability index (doa10∆): 1.93 ± 0.066 | protein stability index (pdr5∆): 2.48 ± 0.061 | protein stability index (san1∆): 2.48 ± 0.073 | protein stability index (ubr1∆): 2.35 ± 0.074

AKLWFYIYLSHETLARS [RPN3]
protein stability index (doa10∆): 1.69 ± 0.088 | protein stability index (pdr5∆): 1.4 ± 0.086 | protein stability index (san1∆): 1.68 ± 0.15 | protein stability index (ubr1∆): 1.65 ± 0.084

ILGIHTSKMNLSEDVNL [RPT2]
protein stability index (doa10∆): 3.03 ± 0.12 | protein stability index (pdr5∆): 3.16 ± 0.081 | protein stability index (san1∆): 3 ± 0.13 | protein stability index (ubr1∆): 3.14 ± 0.067

NLQQDKTNFQDVILDYQ [REC8]
protein stability index (doa10∆): 3.07 ± 0.069 | protein stability index (pdr5∆): 3.19 ± 0.05 | protein stability index (san1∆): 3.4 ± 0.071 | protein stability index (ubr1∆): 3.12 ± 0.041

VVFDSNEAPPKTSLADW [YMR153W/NUP53]
protein stability index (doa10∆): 3.19 ± 0.06 | protein stability index (pdr5∆): 3.28 ± 0.051 | protein stability index (san1∆): 3.06 ± 0.073 | protein stability index (ubr1∆): 3.33 ± 0.096

SANGYLNATTAMDLAQM [BRR2]
protein stability index (doa10∆): 3.23 ± 0.17 | protein stability index (san1∆): 3.15 ± 0.088

ADDVFTGTGLQDENIGL [RPC31]
protein stability index (doa10∆): 3.46 ± 0.11 | protein stability index (pdr5∆): 3.44 ± 0.096 | protein stability index (san1∆): 3.21 ± 0.057 | protein stability index (ubr1∆): 3.33 ± 0.07

IEINEDNSQDDQDRGAA [RRI2]
protein stability index (doa10∆): 3.24 ± 0.18 | protein stability index (pdr5∆): 3.28 ± 0.23 | protein stability index (san1∆): 3.12 ± 0.12 | protein stability index (ubr1∆): 3.04 ± 0.11

HANAAAVYFADTSGLKI [SIN4]
protein stability index (doa10∆): 2.37 ± 0.067 | protein stability index (pdr5∆): 2.56 ± 0.065 | protein stability index (san1∆): 2.23 ± 0.073 | protein stability index (ubr1∆): 2.49 ± 0.053

QAQAQAQANNNNNGLPQ [GAL11]
protein stability index (doa10∆): 3.04 ± 0.037 | protein stability index (pdr5∆): 3.1 ± 0.035 | protein stability index (san1∆): 2.952 ± 0.029 | protein stability index (ubr1∆): 3.05 ± 0.033

LESDFVTGASQFQRLAP [PRE2]
protein stability index (doa10∆): 2.88 ± 0.094 | protein stability index (pdr5∆): 2.97 ± 0.11 | protein stability index (san1∆): 3.17 ± 0.086 | protein stability index (ubr1∆): 2.87 ± 0.067

IELNFDAVKDFKLGKFN [QCR2]
protein stability index (doa10∆): 3.31 ± 0.26 | protein stability index (pdr5∆): 2.69 ± 0.17 | protein stability index (san1∆): 3.31 ± 0.093 | protein stability index (ubr1∆): 3.71 ± 0.25

PKSKSLPNEMSQNDGFV [RPO31]
protein stability index (doa10∆): 3 ± 0.2 | protein stability index (pdr5∆): 3.14 ± 0.14 | protein stability index (san1∆): 3.38 ± 0.12 | protein stability index (ubr1∆): 3.36 ± 0.11

HLKHENANDETTAVEDE [RPB4]
protein stability index (doa10∆): 2.92 ± 0.067 | protein stability index (pdr5∆): 3.08 ± 0.093 | protein stability index (san1∆): 3.17 ± 0.086 | protein stability index (ubr1∆): 3.17 ± 0.14

ARRTLQKLGLDETYKGV [RPL5]
protein stability index (pdr5∆): 2.97 ± 0.18 | protein stability index (san1∆): 3.43 ± 0.14

HTLCNRCGRRSFHVQKK [RPL37A]
protein stability index (doa10∆): 2.98 ± 0.035 | protein stability index (pdr5∆): 2.72 ± 0.048 | protein stability index (san1∆): 2.83 ± 0.031 | protein stability index (ubr1∆): 2.85 ± 0.029

LNAINNAEKTGKRQVLI [RPS22A]
protein stability index (pdr5∆): 2.3 ± 0.26

LFKKITNVNPSKNFNVI [YML103C/NUP188]
protein stability index (doa10∆): 2.63 ± 0.048 | protein stability index (pdr5∆): 2.37 ± 0.038 | protein stability index (san1∆): 2.73 ± 0.042 | protein stability index (ubr1∆): 2.39 ± 0.036
